The results in this text go back to EP4628506A1, “PREPARATION METHOD FOR AND USE OF CD70-SPECIFIC INTEGRATED DIAGNOSIS AND TREATMENT MOLECULAR IMAGING PROBE” (Renji Hospital, Shanghai Jiao Tong University School of …, priority 2022, dated 2024).

The target in data set [1] is T1, extracellular domain of human recombinant CD70 (human, UniProt P32970 39-193).
T1 construct: extracellular domain; Immobilised on Biacore chips; also called human CD70; CD27 ligand
T1 sequence (looked up): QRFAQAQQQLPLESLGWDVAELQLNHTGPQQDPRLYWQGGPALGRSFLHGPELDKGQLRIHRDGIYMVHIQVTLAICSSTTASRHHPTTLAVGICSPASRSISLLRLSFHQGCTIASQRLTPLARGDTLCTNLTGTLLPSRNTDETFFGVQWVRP
Nature of the data set: SPR (Biacore), CD70 extracellular domain immobilised, fusion protein as mobile phase. Background: Surface plasmon resonance follows binding to a sensor surface in real time, without labels.

Data set [2] addresses T2, recombinant murine serum albumin (murine, UniProt P07724 25-608).
T2 construct: Immobilised on Biacore chips
In words: SPR (Biacore), recombinant murine serum albumin immobilised, fusion protein as mobile phase.

Data set [3] concerns the target T3, recombinant human serum albumin (human, UniProt P02768 25-609).
T3 construct: Immobilised on Biacore chips
In words: SPR (Biacore), recombinant human serum albumin immobilised, fusion protein as mobile phase.

Data set [4] has as its target T1, extracellular domain of human …. Nature of the data set: SPR (Biacore), CD70 extracellular domain immobilised, nanobody as mobile phase.
For the next data set, the system named is RCC models (No. 62 PDX). Set-up: species or system mice. To be noted: mouse, in vivo. The text has this: Renal cell carcinoma (RCC) patient-derived xenograft (PDX) models, No. 62 PDX, positive in expression of CD70 were identified by immunohistochemical (IHC) staining using an antihuman CD70 monoclonal antibody (E3Q1A, 69209, Cell Signaling Technology) as a primary antibody, as shown in FIG. 3. RCC PDX models were established by subcutaneously inoculating 2mm×2mm×2mm No. 62 PDX tissue chunks into right shoulder of NCG (NOD-Prkdcem26Cd52Il2rgem26Cd22/Nju) mice.
PET/CT images of small animals involved in these tests were all captured using an IRIS small-animal PET/CT scanner (Inviscan Imaging Systems). Each murine model (three in each group) was injected with 3.7-7.4 MBq of [^68Ga]Ga-NOTA-B3 or [^68Ga]Ga-NOTA-B6 via the tail vein. One hour after the injection, the mice were anesthetized with isoflurane mixed in oxygen (at a concentration of 2%). After being deeply anesthetized, the mice were placed supine on the PET/CT scanning bed, and PET and CT images were captured sequentially. […]
The same operations as in step 2) above were performed. […] ROI uptake in the tumor and major tissues and organs (heart, liver, lungs, kidneys, muscles, spleen and bones) was analyzed and plotted against time. […]

T3 sequence (P02768 25-609 limits assumed): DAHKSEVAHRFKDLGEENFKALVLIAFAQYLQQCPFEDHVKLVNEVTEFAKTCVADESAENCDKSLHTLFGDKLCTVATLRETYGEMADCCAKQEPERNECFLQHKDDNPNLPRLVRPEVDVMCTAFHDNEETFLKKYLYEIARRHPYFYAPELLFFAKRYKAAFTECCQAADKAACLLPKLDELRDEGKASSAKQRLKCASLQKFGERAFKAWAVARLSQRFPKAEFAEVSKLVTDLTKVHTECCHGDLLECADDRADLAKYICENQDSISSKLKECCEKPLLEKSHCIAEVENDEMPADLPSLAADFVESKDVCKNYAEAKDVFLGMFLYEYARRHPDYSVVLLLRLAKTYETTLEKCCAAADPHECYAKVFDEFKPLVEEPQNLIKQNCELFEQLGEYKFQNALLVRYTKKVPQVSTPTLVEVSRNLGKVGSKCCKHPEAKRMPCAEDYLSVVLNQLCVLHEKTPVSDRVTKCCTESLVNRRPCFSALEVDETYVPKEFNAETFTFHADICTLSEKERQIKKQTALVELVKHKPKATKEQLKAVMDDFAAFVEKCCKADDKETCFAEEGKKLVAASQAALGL

B1: CD70-specific nanobody fusion protein ABDB3 (other)
chain: HHHHHHQVQLQESGGGSVQAGGSLRLSCAASGIIVNDGCMAWFRQVPGKEREGVAGIVIGEYGGGTTYYADSVKGRFTISRDRAKNTLYLQMNSLKPEDTAMYYCAADQWASGGCTSIATFSDEFDYWGQGTQVTVSSGGGGSGGGGSGGGGSLAEAKVLANRELDKYGVSDFYKRLINKAKTVEGVEALKLHILAALPGGGGSLLQS
notes: 5
With B1, the results for the Kd in data set [1], in data set [2] and in data set [3] were 0.11 nM, 0.38 nM and 0.0742 nM, respectively.

B2: CD70-specific nanobody B6 (VHH)
VHH: QVQLQESGGGSVQAGGSLRLSCVASDLIVNDGCMAWFRQVPGKEHEGVARIAIPTTPGSTLYADSVKGRFTISRDGAKNTLYLQMNSLKPEDTAVYYCAADQWASRGCTAIATIPAEFDYWGQGTQVTVSS
notes: Monovalent nanobody expressed in E. coli from pET-30a(+); any vector-derived tag is not described
On to B2, for which the Kd in data set [4] came out at 3.73 nM.

B3: CD70-specific nanobody B3 (VHH)
VHH: QVQLQESGGGSVQAGGSLRLSCAASGIIVNDGCMAWFRQVPGKEREGVAGIVIGEYGGGTTYYADSVKGRFTISRDRAKNTLYLQMNSLKPEDTAMYYCAADQWASGGCTSIATFSDEFDYWGQGTQVTVSS
notes: as for B2
In the case of B3, the Kd in data set [4] turned out to be 5.69 nM.

B4: CD70-specific nanobody fusion protein ABDB6 (other)
chain: HHHHHHQVQLQESGGGSVQAGGSLRLSCVASDLIVNDGCMAWFRQVPGKEHEGVARIAIPTTPGSTLYADSVKGRFTISRDGAKNTLYLQMNSLKPEDTAVYYCAADQWASRGCTAIATIPAEFDYWGQGTQVTVSSGGGGSGGGGSGGGGSLAEAKVLANRELDKYGVSDFYKRLINKAKTVEGVEALKLHILAALPGGGGSLLQS
notes: 7
In the case of B4, the Kd in data set [1] amounted to 0.135 nM; in data set [2] it was 0.454 nM; in data set [3] it was 0.0885 nM.

B5: [^68Ga]Ga-NOTA-B6: human CD70-specific 68Ga-labeled monovalent nanobody probe, B6 modified with p-SCN-Bn-NOTA (conjugate)
VHH: QVQLQESGGGSVQAGGSLRLSCVASDLIVNDGCMAWFRQVPGKEHEGVARIAIPTTPGSTLYADSVKGRFTISRDGAKNTLYLQMNSLKPEDTAVYYCAADQWASRGCTAIATIPAEFDYWGQGTQVTVSSGGGGSGGGGSLLQSHHHHHH
Regarding B5, the “uptake in the major excretory (kidneys) and metabolic (liver) organs” value in the data set with RCC models (No. 62 PDX) was “high nonspecific uptake”.

What is called Kd is the concentration at which binding is half-saturated.
